In PMC3961692:

Key:
[1] = biological target: human interleukin-6 (Homo sapiens) (UniProt P05231); assay: solution affinity (radiolabel, ZORBAX resin capture); conditions: SB17T: 40 mM HEPES pH 7.5, 102 mM NaCl, 5 mM KCl, 5 mM MgCl2, 1 mM EDTA, 0.05% Tween 20, 37 C
[2] = biological target: human interleukin-6 (Homo sapiens) (UniProt P05231); assay: SPR; conditions: 2'-OMe at C3,G6,A16,A19,C20,C28; Bn-dU9 to Pe-dU; Bn-dU12 to Nap-dU; other dT Bn-dU; SB17T: 40 mM HEPES pH 7.5, 102 mM NaCl, 5 mM KCl, 5 mM MgCl2, 1 mM EDTA, 0.05% Tween 20, 37 C

human interleukin-6 (Homo sapiens), sequence (P05231 30-212): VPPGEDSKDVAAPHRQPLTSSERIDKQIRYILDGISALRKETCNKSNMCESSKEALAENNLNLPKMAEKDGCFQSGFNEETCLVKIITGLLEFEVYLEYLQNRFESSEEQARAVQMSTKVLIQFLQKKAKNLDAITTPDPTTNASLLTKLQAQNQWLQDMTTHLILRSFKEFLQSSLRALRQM

GGCAGGUUUGGUAUUAACACGUUAAGUCGUGG [SL1023]
Kd ([1]; Bn-dU replaces dT): 1 nM

GGCAGGUUUGGUAUUAACACGUUAAGUCGUGG [SL1025]
Kd ([1]; 2'-OMe at C3,G6,A16,A19,C20,C28, Bn-dU9 to Pe-dU, Bn-dU12 to Nap-dU, other dT Bn-dU): 0.16 nM | Kd [2]: 0.23 nM

GGGGUUAUGUAGCGAGUGCGUAAGGCGGUGGGCGAGGGA [SL1030]
binding signal (fold weaker than SL1032) ([1]; Nap-dU replaces dT): 10
